Assay results as given in US20250188184A1 (published 2025).

Columns and labels:
human CD3 epsilon [1] = biological target: T1, human CD3 epsilon (human, UniProt P07766 23-126, limits assumed); test: Octet, uTCE
T1 construct: also called huCD3e

cynomolgus CD3 epsilon [2] = biological target: T2, cynomolgus CD3 epsilon (cynomolgus monkey, UniProt Q95LI5 22-117, limits assumed); test: Octet, uTCE
T2 construct: also called cyCD3e
T2 sequence (looked up): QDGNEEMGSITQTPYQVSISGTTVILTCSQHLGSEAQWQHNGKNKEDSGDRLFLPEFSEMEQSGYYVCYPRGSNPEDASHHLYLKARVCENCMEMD

cynomolgus monkey PSMA [3] = biological target: T3, cynomolgus monkey PSMA (cynomolgus monkey, UniProt A0A2K5VNZ0 44-750); test: Octet, uTCE
T3 construct: also called cyPSMA; cyno PSMA

human PSMA [4] = biological target: T4, human PSMA (human, UniProt Q04609 44-750, limits assumed); test: Octet, uTCE
T4 construct: other Octet runs used human PSMA-Fc; also called huPSMA; prostate-specific membrane antigen
T4 sequence (Q04609 44-750 limits assumed): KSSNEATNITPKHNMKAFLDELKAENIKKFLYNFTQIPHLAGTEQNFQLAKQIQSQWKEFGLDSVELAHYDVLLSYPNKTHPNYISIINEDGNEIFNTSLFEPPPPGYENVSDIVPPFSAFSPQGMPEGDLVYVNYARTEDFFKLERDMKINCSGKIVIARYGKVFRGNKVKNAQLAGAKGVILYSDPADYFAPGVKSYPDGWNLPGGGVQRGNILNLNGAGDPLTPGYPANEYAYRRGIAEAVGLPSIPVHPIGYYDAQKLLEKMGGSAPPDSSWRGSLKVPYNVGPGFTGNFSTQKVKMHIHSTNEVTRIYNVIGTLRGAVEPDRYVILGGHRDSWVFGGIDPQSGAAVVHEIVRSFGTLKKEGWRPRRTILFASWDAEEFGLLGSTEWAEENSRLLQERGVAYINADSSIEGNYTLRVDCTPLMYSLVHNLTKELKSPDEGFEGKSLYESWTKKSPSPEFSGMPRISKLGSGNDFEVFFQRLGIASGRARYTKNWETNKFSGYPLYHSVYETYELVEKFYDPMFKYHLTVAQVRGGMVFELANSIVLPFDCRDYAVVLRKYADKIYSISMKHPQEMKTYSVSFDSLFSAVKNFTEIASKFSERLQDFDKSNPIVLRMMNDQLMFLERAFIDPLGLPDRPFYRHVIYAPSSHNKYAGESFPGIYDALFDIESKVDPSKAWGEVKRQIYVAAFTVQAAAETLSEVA

human CD3 epsilon [5] = biological target: T1, human CD3 epsilon; test: Biacore, uTCE
cynomolgus CD3 epsilon [6] = biological target: T2, cynomolgus CD3 epsilon; test: Biacore, uTCE
cynomolgus monkey PSMA [7] = biological target: T3, cynomolgus monkey PSMA; test: Biacore, uTCE
human PSMA [8] = biological target: T4, human PSMA; test: Biacore, uTCE
human CD3 epsilon [9] = biological target: T1, human CD3 epsilon; test: Octet, crude lysate
Experimental: Pool 2 consisted of paTCE molecules each containing PSMA.262 and one of 64 CD3.23 mutation combination variants. Stability and affinity of the individually expressed molecules in the form of crude lysate was evaluated by Octet. […] The binding of these anti-CD3 molecules (CD3.227, CD3.228, CD3.229 and CD3.230) to human and cynomolgus CD3 was measured by Octet and the Tₘ was measured by Differential Scanning Fluorimetry. All variants were paired with PSMA.262 except for CD3.23 which was paired with PSMA.5.

T1 sequence (P07766 23-126 limits assumed): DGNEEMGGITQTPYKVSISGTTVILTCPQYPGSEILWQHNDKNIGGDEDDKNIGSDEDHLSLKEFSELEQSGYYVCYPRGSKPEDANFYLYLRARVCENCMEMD

B1: uTCE from AC3445 (PSMA.119-CD3.23) (bispecific antibody)
chain: GTSESATPESQVQLVESGGGVVQPGRSLRLSCAASGRTFGIYVMGWVRQAPGKEREFVAAISWSGSNRKVSDSVKGRFTISRDNSKNTLYLQMNSLRAEDTAVYYCAASNRLYGRTWYDFNESDYWGQGTQVTVSSGGGGSGGGSELVVTQEPSLTVSPGGTVTLTCRSSNGAVTSSNYANWVQQKPGQAPRGLIGGTNKRAPGTPARFSGSLLGGKAALTLSGVQPEDEAVYYCALWYPNLWVFGGGTKLTVLSESATPESGPGTSPGATPESGPGTSESATPEVQLLESGGGIVQPGGSLKLSCAASGFTFNTYAMNWVRQAPGKGLEWVARIRSKYNNYATYYADSVKDRFTISRDDSKNTVYLQMNNLKTEDTAVYYCVRHENFGNSYVSWFAHWGQGTLVTVSSGTATPESGPG
notes: release-segment residues left at the ends not specified
Kd (human CD3 epsilon [1]): 34.8 nM | Kd (cynomolgus CD3 epsilon [2]): 40 nM | Kd (cynomolgus monkey PSMA [3]): 47.5 nM | Kd (human PSMA [4]): 6.2 nM

B2: uTCE from AC3928 (PSMA.350-CD3.23) (bispecific antibody)
chain: GTSESATPESQVQLVESGGGVVQPGRSLRLSCAASGRTFGIYVWGWFRQAPGKEREFVGAMSWSGSNRKVSDSVKGRFTISRDNSKNTLYLQMNSLRAEDTAVYYCAASNKEYGRTWYDFNESDYWGQGTQVTVSSGGGGSGGGSELVVTQEPSLTVSPGGTVTLTCRSSNGAVTSSNYANWVQQKPGQAPRGLIGGTNKRAPGTPARFSGSLLGGKAALTLSGVQPEDEAVYYCALWYPNLWVFGGGTKLTVLSESATPESGPGTSPGATPESGPGTSESATPEVQLLESGGGIVQPGGSLKLSCAASGFTFNTYAMNWVRQAPGKGLEWVARIRSKYNNYATYYADSVKDRFTISRDDSKNTVYLQMNNLKTEDTAVYYCVRHENFGNSYVSWFAHWGQGTLVTVSSGTATPESGPG
notes: release-segment residues left at the ends not specified; also called AMX500-P6 uTCE
Kd (human CD3 epsilon [1]): 43 nM | Kd (cynomolgus CD3 epsilon [2]): 44.9 nM | Kd (cynomolgus monkey PSMA [3]): 198 nM | Kd (human PSMA [4]): 13.2 nM | Kd (human CD3 epsilon [5]): 27.3 nM | Kd (cynomolgus CD3 epsilon [6]): 26.6 nM | Kd (cynomolgus monkey PSMA [7]): 354 nM | Kd (human PSMA [8]): 19 nM

B3: uTCE from AC3934 (PSMA.262-CD3.228) (bispecific antibody)
chain: GTSESATPESQVQLVESGGGVVQPGRSLRLSCAASGRTFGIYVWGWVRQAPGKEREFVGAISWSGSNRKVSDSVKGRFTISRDNSKNTLYLQMNSLRAEDTAVYYCAASNKLYGRTWYDFNESDYWGQGTQVTVSSGGGGSGGGSELVVTQEPSLTVSPGGTVTLTCRSSNGAVTSSNYANWVQQKPGQAPRGLIGGTNKRAPGTPARFSGSLLGGKAALTLSGVQPEDEAVYYCALWYPNLWVFGGGTKLTVLSESATPESGPGTSPGATPESGPGTSESATPEVQLVESGGGIVQPGGSLRLSCAASGFTFSTYAMNWVRQAPGKGLEWVGRIRTKRNNYATYYADSVKGRFTISRDDSKNTVYLQMNSLKTEDTAVYYCVRHENFGNSYVSWFAHWGQGTLVTVSSGTATPESGPG
notes: release-segment residues left at the ends not specified; also called AMX500-P7 uTCE
Kd (human CD3 epsilon [1]): 26.6 nM | Kd (cynomolgus CD3 epsilon [2]): 33.7 nM | Kd (cynomolgus monkey PSMA [3]): 13.1 nM | Kd (human PSMA [4]): 1.6 nM | Kd (human CD3 epsilon [5]): 9.83 nM | Kd (cynomolgus CD3 epsilon [6]): 10.4 nM | Kd (cynomolgus monkey PSMA [7]): 13 nM | Kd (human PSMA [8]): 0.5 nM

B4: CD3.218 (AC3649) (bispecific antibody, V domains shown)
VH: EVQLVESGGGIVQPGGSLRLSCAASGFTFSTYAMNWVRQAPGKGLEWVGRIRSKYNNYATTYADSVKGRFTISRDDSKNTVYLQMNSLKTEDTAVYYCVRHENFGNSYVSWFAHWGQGTLVTVSS
VL: ELVVTQEPSLTVSPGGTVTLTCRSSNGAVTSSNYANWVQQKPGQAPRGLIGGTNKRAPGTPARFSGSLLGGKAALTLSGVQPEDEAVYYCALWYPNLWVFGGGTKLTVL
notes: paTCE with PSMA.262 VHH; crude lysate
Kd (human CD3 epsilon [9]): 4.4 nM

B5: CD3.251 (AC3682) (bispecific antibody, V domains shown)
VH: EVQLVESGGGIVQPGGSLRLSCAASGFTFNTYAMNWVRQAPGKGLEWVGRIRSKRNNYATTYADSVKDRFTISRDDSKNTVYLQMNSLKTEDTAVYYCVRHENFGNSYVSWFAHWGQGTLVTVSS
VL: ELVVTQEPSLTVSPGGTVTLTCRSSNGAVTSSNYANWVQQKPGQAPRGLIGGTNKRAPGTPARFSGSLLGGKAALTLSGVQPEDEAVYYCALWYPNLWVFGGGTKLTVL
notes: as for B4
Kd (human CD3 epsilon [9]): 32.9 nM
